One assay deals with OVCAR-3. The experiment in a line: Cell killing assay, OVCAR-3. In kind it is cell-based. The settings on record: OVCAR-3 human ovarian cancer cell line. The procedure:
(§1) In this example, the anti-cancer effect of CAN001 antibody-drug conjugate was tested with CellTiter-Glo cell viability assay in a 96-well plate.
(§2) Human ovarian cancer cell lines: OVCAR-3, A2780, and 3A0, all from ATCC.
(§3) Cells were seeded in a 96-well cell culture plate with 1,000 cells per well, and the total amount of the culture medium per well was controlled to 200 μL. After the cells adhered to the wall, the cells were treated with corresponding drugs, and the drugs were withdrawn at different time points (0, 24 h, 48 h, 72 h and 96 h), and MTS detection solution (10 μL MTS reagent+190 μL complete medium) (MTS cell proliferation kit (colorimetry) from AmyJet Scientific) was added. Then, the 96-well cell culture plate was incubated in a CO2 cell incubator for about 2 h away from light. Then, the cell culture plate was taken out and was measured at a wavelength of 492 nm to determine the absorbances of different groups of cells.
(§4) % inhibition and IC50 of each compound were calculated with XLFit curve fitting software.

The test system of another assay is A2780. The experiment in a line: Cell killing assay, A2780. The settings on record: A2780 human ovarian cancer cell line. The assay is classed as cell-based. The procedure:
as §1, §2, §3, §4

The next assay deals with 3AO. The assay can be described thus: Cell killing assay, 3AO. The assay is classed as cell-based. The settings on record: 3AO human ovarian cancer cell line. The procedure: as §1, §2, §3, §4
A further assay deals with T1, human FSHR (Homo sapiens, UniProt P23945).
T1 construct: a fragment containing the FSHR gene was obtained by PCR with the cDNA as a template and FSHR-F and FSHR-R as primers; expressed in transfected cells; host or cells: HEK293T
T1 sequence (P23945 18-695): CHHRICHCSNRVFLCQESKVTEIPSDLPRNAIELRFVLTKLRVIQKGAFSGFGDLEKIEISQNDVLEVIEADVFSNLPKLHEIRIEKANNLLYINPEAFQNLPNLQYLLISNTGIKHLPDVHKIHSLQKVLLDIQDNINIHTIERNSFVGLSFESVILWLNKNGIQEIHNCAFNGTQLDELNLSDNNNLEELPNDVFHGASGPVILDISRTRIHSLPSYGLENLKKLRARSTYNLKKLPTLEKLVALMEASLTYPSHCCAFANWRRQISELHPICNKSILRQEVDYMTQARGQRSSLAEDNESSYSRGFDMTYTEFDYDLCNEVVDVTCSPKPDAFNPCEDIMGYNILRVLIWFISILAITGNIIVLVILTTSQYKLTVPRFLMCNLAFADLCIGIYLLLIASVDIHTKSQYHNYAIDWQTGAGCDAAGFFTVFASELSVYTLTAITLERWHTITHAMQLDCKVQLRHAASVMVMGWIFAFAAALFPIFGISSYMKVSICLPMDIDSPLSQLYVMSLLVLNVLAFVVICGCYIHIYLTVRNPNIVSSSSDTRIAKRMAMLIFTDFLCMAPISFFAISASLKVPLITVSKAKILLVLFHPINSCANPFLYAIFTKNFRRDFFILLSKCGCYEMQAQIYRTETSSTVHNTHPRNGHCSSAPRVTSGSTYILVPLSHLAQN
The assay can be described thus: Flow cytometry analysis of CAN001 antibody on HEK293T cells expressing FSHR. The assay is classed as binding. The settings on record: for positive stained rate of the HEK293T cells: HEK293T cells expressing FSHR. The procedure: HEK293T cells were transfected with pMSGβ3_FSHR plasmid to obtain HEK293T cells expressing FSHR as the experimental group. HEK293T cells were transfected with pmaxGFP(Lonza) to obtain HEK293T cells expressing GFP protein as the negative control. After incubation with the supernatant containing the CAN001 antibody obtained in Example 3, the cells of the experimental group and negative control were stained with the CAN001 antibody and then the cells were washed and incubated with APC conjugated goat anti-mouse IgG secondary antibody. Flow cytometry was done with BD calibur and analyzed with Cellquest software.
In order to further screen the best CAN001 supernatant, HEK293T cells were co-transfected with a mixture of plasmids pcDNA3.1_CAN001 HC and pcDNA3.1_CAN001 LC with different proportions (mass ratios of pcDNA3.1_CAN001 HC to pcDNA3.1_CAN001 LC from left to right in FIG. 3 were 1:2, 1:1 and 1:3 respectively) and 25 kD linear PEI polymer according to a mass ratio of vector to polymer of 1:3. Seventy-two hours after transfection, the supernatant was collected and used to stain HEK293T cells expressing FSHR, and HEK293T cells expressing GFP protein were used as the negative control. The steps were as described above. […] The mass ratio of pcDNA3.1_CAN001 HC to pcDNA3.1_CAN001 LC of 1:2 was selected to prepare the supernatant containing CAN001 antibody.

Where a SMILES comes first, the peptide text is derived from it. [ ]: non-standard residue; d: D form. Dolaproine = CO[C@@H]([C@@H]1CCCN1)[C@@H](C)C(=O)O; Dil = CC[C@H](C)[C@H](NC)[C@@H](CC(=O)O)OC; NMeV = CN[C@H](C(=O)O)C(C)C Bounds are passed on as bounds.

Consider `CC[C@H](C)[C@@H]([C@@H](CC(=O)N1CCC[C@H]1[C@H](OC)[C@@H](C)C(=O)N[C@@H](Cc1ccccc1)C(=O)O)OC)N(C)C(=O)[C@@H](NC(=O)[C@@H](NC)C(C)C)C(C)C` [MMAF, monomethylauristatin F] (H-[NMeV]V[Dil][Dolaproine]F-OH), for which the results for the IC50 in the assay on OVCAR-3, in the assay on A2780 and in the assay with 3AO were 205 nM, 223 nM and 301 nM, respectively.

B1: CAN001: Mouse anti-human FSHR monoclonal antibody; light chain SEQ ID NO: 3, heavy chain SEQ ID NO: 4 (protein)
light: MALPVTALLLPLALLLHAARPQIVLTQSPVIMSASPGEKVTLTCSASSSVSSSYLYWYQQKPGSSSKLWIYSTSNLASGVPARFSGSGSGTSYSLTISSMEAEDAASYFCHQWSSYPPTFGGGTKLEIKRADAAPTVSIFPPSSEQLTSGGASVVCFLNNFYPKDINVKWKIDGSERQNGVLNSWTDQDSKDSTYSMSSTLTLTKDEYERHNSYTCEATHKTSTSPIVKSFNRNEC
heavy: MEFGLSWVFLVALFRGVQCASQVQLQQPGAELVKPGASVNLSCKASGYTFTSYWMHWVKQRPGQGREWIGEINPRNGRTNYNEKFKSKATLTVDKSSSTAYMQLSSLTSEDSAVYCCARLSVGFAYWGQGTLVTVSAAKTTAPSVYPLAPVCGDTTGSSVTLGCLVKGYFPEPVTLTWNSGSLSSGVHTFPAVLQSDLYTLSSSVTVTSSTWPSQSITCNVAHPASSTKVDKKLEPRGPTIKPCPPCKCPAPNAAGGPSVFIFPPKIKDVLMISLSPIVTCVVVDVSEDDPDVQISWFVNNVEVHTAQTQTHREDYNSTLRVVSALPIQHQDWMSGKEFKCKVNNKDLGAPIERTISKPKGSVRAPQVYVLPPPEEEMTKKQVTLTCMVTDFMPEDIYVEWTNNGKTELNYKNTEPVLDSDGSYFMYSKLRVEKKNWVERNSYSCSVVHEGLHNHHTTKSFSRTPGK
modifications: Light chain amino acid sequence; Heavy chain amino acid sequence
Turning to B1, the “staining of FSHR-expressing versus GFP-expressing HEK293T cells” value in the assay with human FSHR (supernatant containing CAN001 antibody, APC goat anti-mouse IgG secondary, GFP-expressing cells as negative control) was “specifically stained FHSR-expressing cells but not GFP-expressing cells”. The figures for the “positive stained rate of the HEK293T cells” value in the assay with human FSHR (supernatant from mass ratio pcDNA3.1_CAN001 HC to LC 1:1), with human FSHR (supernatant from mass ratio pcDNA3.1_CAN001 HC to LC 1:2) and with human FSHR (supernatant from mass ratio pcDNA3.1_CAN001 HC to LC 1:3) were 30.02%, 38.3% and 34.75%, respectively. The molecule also came in with an IC50 in the assay with OVCAR-3 above 1000 nM.

These data come from US20240043548A1, “PREPARATION AND USE OF ANTI-FSHR ANTIBODY AND ANTIBODY-DRUG CONJUGATE THEREOF” (CANWELL (GZ) BIOTECH LIMITED, priority 2020, published 2024).
